# Results taken from the nanobody polyreactivity screen of Harvey et al. (2022).
# Experiment: yeast display, Sf9 membrane polyspecificity reagent, FACS + sequencing; frameworks hold sequencing errors
# Outline: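 A nanobody's polyreactivity label depends on the gate it was sorted from. Yeast display cells were stained with 10% biotinylated, detergent-solubilized Sf9 membrane reagent for 1 hour at 4 °C, enriched on streptavidin microbeads and sorted by FACS. The low and high (top ~1%) gates were set on anti-HA fluorescence for expression and streptavidin fluorescence for reagent binding.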
row,Sequence,polyreactivity (PSR sort gate)
1,QVQLVESGGGLVQAGGILRFSCAASGRTFKYYAMGWYRQAPGKERELVAAISYNGGSTFYADSVKGRFTISRDNAKNTVYLQLNSLKPEDTAVYYCAAGPRGTGKYYWGQGTQVTVSS,high polyreactivity
2,QVQLVESGGGLVQAGGILRLICAASGSIFYYNAMGWSRQAPGKERELVAAITKSGTRTNYADSVKGRFTISRDNAKNTVYLQMNSLKPEDTAVYDCAAEDQYYRYVCAYEYWGQGTQVTVSS,high polyreactivity
3,QVQLVESGGGLVQAGGILRLSCAASARIFTYKAMGWYRQAPGKERELVAAITNGGSTYYADSVKGRFTISRDNAKNTVYLQMNSMKPEDTAVYYCNRVVYRPRYRYGYWGQGTQVTVSS,high polyreactivity
4,QVQLVESGGGLVQAGGILRLSCAASGFIFAYYAMGWYRQAPGKEREFVAVITSSGGRTYYADSVKGRFTISRDNAKNTVYLQMNSLNPVDTAVYYCATSRGYANKYYYWGQGSQVTVSS,low polyreactivity
5,QVQLVESGGGLVQAGGILRLSCAASGFIFNRYAMGWSRQSPGKARELVADITGGSTYYADSVKGRFTISRDNAKNTVYLQMNSLKPEDTAVYYCAAYVWRYWHEYDYWGQGTQVTVSS,low polyreactivity
6,QVQLVESGGGLVQAGGILRLSCAASGFIFRLYAKGWYRQAPGKERGLVAAISSGTSTYYADSVKGRFTISRDNAKNTVYLQMNSLIPEDTAVYYCAARISRYPQDDSDYWGQGTQVTVSS,high polyreactivity
7,QVQLVESGGGLVQAGGILRLSCAASGFIFTANDMGWYIQAPGKVRELVAAISSGGRTYYADSVKGRFTISRDNAKNSVYFQKNSLKPEDTAVYYCARDLYVRNGQRARYDSWGQGTQVTVSS,high polyreactivity
8,QVQLVESGGGLVQAGGILRLSCAASGFTFGRYAMGRSRQAPGKEREFVAAISYTGTSTYYADSVKGRFTISRDNAKNTVYLQMNSRNPEDTAVYYCNAKWRSHYTQWSYDYWGQCTQVTVSS,high polyreactivity
9,QVQLVESGGGLVQAGGILRLSCAASGFTFSDNAMGWYIQAPGKERELVAAISRSGGRTYYADSVKGRFTISRDNAKNTVYLQMNSLKPEDTAVYYCAAYQYGMDYWGQGSQVTVSS,high polyreactivity
10,QVQLVESGGGLVQAGGILRLSCAASGHIFFYYNMGWYRQAPGKERELVAGITIGGSTNYADSVKGRFTISRDNAKNTVNLQMNSLTPEDTAVYYCAKGGEVSQGYTDEYDYWGLGTQVTVSS,low polyreactivity
11,QVQLVESGGGLVQAGGILRLSCAASGIIFNTNFMGWYRQAPGKERELVAAISRTNYADSVKGRFTISRDNAKNNVFLEMNSLHPEDTSVYDCIVELQYGRPGGQEFDYWGQGSQVTVSS,low polyreactivity
12,QVQLVESGGGLVQAGGILRLSCAASGINFLYYAMGWYREAPGKEMELVAAINGSGGNTYYADSVKGRFTISLDNAKNTVYLQMNRLKPEDTAVYYCNADFFVYSYQQWDEYYDYWGQGTQVTVSS,low polyreactivity
13,QVQLVESGGGLVQAGGILRLSCAASGITFRRSAKGWYRQAPGKERELVAGISYSGGTTYYADSVKGRFTISRDNAKNTVYLQMNSLKAEDTAVYYCAAKRISYTREGYSQYDDWGQGSQVTVSS,high polyreactivity
14,QVQLVESGGGLVQAGGILRLSCAASGLIFSYNTMGWYRHAPGKERELVAGNTSSGSTYYADSVKGRFTISRDNAKNSVYLQMNSLKPEDTAVYYCAAEWDDGRSWYWYYLVGFEYWGQGTQVTVSS,high polyreactivity
15,QVQLVESGGGLVQAGGILRLSCAASGLIFTYYAMGWYRQAPWKERELLAAINYSGGSTYYADSVKGRFTISRDNAKNTVYLQMNSLKPEDTAVYYCNAGYGEHPLSGYEYWGQSTQVTVSS,low polyreactivity
16,QVQLVESGGGLVQAGGILRLSCAASGLSFSWYDMGWYRQAPGKERELVAAITTDGDDTYYADSVKGRFTISRDNAKNTVYLQMNSLKPEDTAVYYCAADSELAIRYPDRDYDSWGQGTQVTVSS,low polyreactivity
17,QVQLVESGGGLVQAGGILRLSCAASGRIFNGYAMGWYRQAPGKERELVAAITSGGRTYADSVKGRFTISRDNAKNTVYLQMYSLKPEDTAVYYCAADAGRILFSGYDYWGQGTQVTVSS,low polyreactivity
18,QVQLVESGGGLVQAGGILRLSCAASGRIFYVNAMGWYRQAPGKERELVAAITWIDGSTYYADSVKGRFTISRDNAKNTVYLQMNSLKPEDTAVYYCAAGGYFYSFYYWGQGTQVTVSS,low polyreactivity
19,QVQLVESGGGLVQAGGILRLSCAASGRIKPRNAMGWYRQAPGKERELVAAISWDGGSTYYADSVKGRFTISRDNAKNTVYLQINSLKPVDTAVYYCNVYVSAGEEDEYWGQGTQVTVSS,low polyreactivity
20,QVQLVESGGGLVQAGGILRLSCAASGRILDYYAMGWYRQAPGKERELVAAISRSGSDTYYADSVKGRFTISRDNAKNTVYLQMNSLKPEETAVYYCAARWSYRSLARYNYWGQGTQVTVSS,low polyreactivity
21,QVQLVESGGGLVQAGGILRLSCAASGRSFDRNAMGWYRQAPGKERELVATISSGDTTDYADSVKGRFTISRDNATNTVYLQMNSLKPEDTAGYYITIYNYWGQGTQVTVSS,low polyreactivity

row,Sequence,polyreactivity (PSR sort gate)
1,QVQLVESGGGLVQAGGILRLSCAASGRTLDCNAMGWYRQAPGKERELDAAITVTGSSTYYADSVKGRFTISRDNAKNTVYLQMNSLKPEDTAVYYCAKASGGDVRYSYSYRMDYWGQGTQVTVSS,low polyreactivity
2,QVQLVESGGGLVQAGGILRLSCAASGRTVVSYAMGWYRQQPGKGRELVAVITGGTGNTYYADSVKGRFTISRDNEKNTVYLQMNSLKREDTAVYYCNARGCYYKFRYPLYYWGQGTQVTVSS,high polyreactivity
3,QVQLVESGGGLVQAGGILRLSCAASGSIFAHYTMGWYRKAPGKERELVAAISGSGGSTYYADSVKGRFTISRDNAKNTVYLQMNSLKPEVTAVYYCNKRYRPVGPYDYWGQGTQVTVSS,high polyreactivity
4,QVQLVESGGGLVQAGGILRLSCAASGSIFKYYAMGWYRQAPGKERELVADISFGGDSTYYADSVKGRFTISRDNAKNTVYLQMNSLIPEDTAVYYCAAARYFWFVEYDYWGQGTQVTVSS,low polyreactivity
5,QVQLVESGGGLVQAGGILRLSCAASGSIFWYYARGWYRQARGKEREFVADITFSGGSTYYADSVNGRFTISRDNAKNTVYIQMNSLKPEDTAVYYCARDREPLTPVLGNYWGQGTQVTVSS,low polyreactivity
6,QVQLVESGGGLVQAGGILRLSCAASGSIIHFYAKGGYREAPGKEWELVAAITSGTSTYYADSVKGRFTISRDNAKNTVYLQMNSLKPDDTAVYYCAAEASHSYYNAYPSYCGSDYWGQGTQVTVSS,low polyreactivity
7,QVQLVESGGGLVQAGGILRLSCAASGSILTDNAMGWYRQAPGKERELVAAITSSGNTNYADSVKGRFTISRDNAKNTVFLQMNSLKPEDTAVYYCARDLREWGQGTQVTVSS,low polyreactivity
8,QVQLVESGGGLVQAGGILRLSCAASGSIYGYNAMGSYRQAPGKERELVADITSSGSTYYADSVKGRFTISRDNAKNTVYLQMNSLKPEDTAVYYCAARYFVYYLEVDSWGQGTQVTVSS,low polyreactivity
9,QVQLVESGGGLVQAGGILRLSCAASGSTFDPNVMGWYRQAPGKERELVAAITWSGGSTSYADSVKGRFTISRDNAKNTVYLQMNSLKPEDTAVYYCAADWHSWRWGYYYWGQGTQVTVSS,low polyreactivity
10,QVQLVESGGGLVQAGGILRLSCAASGSTFGRYAMGWYRQAPGKVRELVAAISRRGGSTYYADSVKGRFTISRDNAKKTVYLQMYSLKRQDTAVYYCGADDVRTTGCHFDYWGQGTEVTVSS,high polyreactivity
11,QVQLVESGGGLVQAGGILRLSCAASGSTFPGYAMGWYRQAPGKERELVAAISGNGVITYYADSVKGRFTISRDNAKNTVYLQMNSLKPEDTAVYYCNADRLYWGGYYGLTYWGQGTQVTVSS,low polyreactivity
12,QVQLVESGGGLVQAGGILRLSCAASGSTFWPYAMGWYRQAPGKERELVATNRGGGTSTYYADSVKGRFTISRDNAKNTVYLQMNSLKPEDTAVYYCAARGFFTGSYPGYYYWGLGTQVTVSS,high polyreactivity
13,QVQLVESGGGLVQAGGILRLSCAASGSTFYYNTMGWYRQAPGKERELVAAISWSGGSTYYADSVKGRFTISRDNAKTTVYLQINSLKPEDTAVYYSNKLRHISRTLYGYWGQGTQVTVSS,high polyreactivity
14,QVQLVESGGGLVQAGGILRLSCAASGSTGTYMGSYRQAPGKEREMVAAIDNIGDNTYYADSVKGRFTISRDNAKNTVYLQMNSLKPEDTAVYYCPADFYVYYPWLFEYDYWGQGTQVTVSS,low polyreactivity
15,QVQLVESGGGLVQAGGILRLSCAASGSTLTSNDMGWYRQAPGKERELFADITWSGGDTYYADSVKGRFTISRDNAKYTVYLQMNSLKPEDTAVYYCAAEDPNYRPFAYGIEYDYWGQGTQVTVSS,low polyreactivity
16,QVQLVESGGGLVQAGGILRLSCAASGYILYGYAMGWYTQAPGKERELVAAISNDGSTYYADSVKGRFTISRDNAKNTVYLQMNSLKPEDTAVYYCNADAWRKVPHPGTGGRDYWGQGTQVTVSS,high polyreactivity
17,QVQLVESGGGLVQAGGILRLSCAATGSTFVNNVMGWYRQGPRKESDLFAAISRRATSTRYADSVKGRFTISRDHAKNTVYLQMNSLKPEDTEVYYCAATLYVGVTGYGYWGQGTQVTVSS,high polyreactivity
18,QVQLVESGGGLVQAGGILRLSCAPSGLILKYYAMGWYRQAPGKEREFVAAITRRGGITYYADSVKGRFTISRDNAKNTVYLQMNSLKPEDTAVYYCAADPKLGSLAYWRYSYPLYDYWGQGTQVTVSS,low polyreactivity
19,QVQLVESGGGLVQAGGILRLSCAPSGRTLPPNAMGWYRHAPGKERELFAGSTWSGGSTYYADSVKGRFTISRDNAKNTVYLPMNSLKPEVTAVYYCAASRSFPGYGLYYYWGQGTQVTVSS,low polyreactivity
20,QVQLVESGGGLVQAGGILRLSCASSGITFLTYTMGWYRQAPAKERELVAAISRSGGRTYYADSVKGRFTISRDNEKITVYLLMNSLKPEDTAVYYCDAVSATQDFDYWGQGTQETVSS,high polyreactivity
